Laboratory results: the supplement of paper PMC9170038

Each sequence was assayed on MS2 coat protein (assay: apparent KD of MS2 coat protein, switch OFF state (with FMN for OFF switches, without FMN for ON switches); designed switch direction (-1 OFF switch, 1 ON switch): -1; higher = weaker reporter binding). Details: FMN input: 0 or 200 uM; Eterna round: R93 (includes R88 designs).
Method in brief: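 Illumina sequencing clusters served as templates for on-chip transcription of the designed RNA switches. SNAP-549-labelled MS2 coat protein was then titrated in twofold steps from 0.7 or 1.5 nM to 3 µM, allowing 0.8–1.5 h per step at first and 10–20 min per step later. The buffer held 100 mM Tris-HCl pH 7.5, 80 mM KCl and 4 mM MgCl2, without or with constant ligand. Apparent KD is the median per design of normalised cluster binding-curve fits.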

Sequence | apparent KD of MS2 coat protein
AGCUAGUCAGGAUAUACAAACAUGUCAAAAGACGUGAAGAAACAUGAGGAUCACCCAUGUAGAAGGGACUAGCA [Mat - Exclusion 2 - JL mod - D16] | 14.5 nM
AGCAUGUGAGGAUAUGUGACCCUCGUCCUAAGGAUGAGGAAAUAGAAGGCACAUGAGGAUCACCCAUGUGAUGA [Eratusar] | 293 nM
AAGAAACAUGAGGAUCACCCAUGUCAGGAUAUGUAAAAGAAAAGAAAAGAAAGAAGAAACAGAAGGGACAAAGG [Neferkaure] | 126 nM
AAGAAGAGAGGAUAUACAUGAGGAUCACCCAUGUAAAAGAAAGAAGGGAAAGAGAAAAGUAGAAGGCUCAAGAA [Usermaatre-setpenamun Rudamun] | 31 nM
AAAAAUGCAGGAUAUACGUACAUGUCAAAAGACGUGAAGGGACAUGAGGAUCACCCAUGUAGAAGGGUAAAGAA [JL Neck Breaker 15] | 59.8 nM
AGAAAACAUGAGGAUCACCCAUGUCAGGAUAUGUAAAAGAAAAGAAAAGAAAGAAGAAGCAGAAGGGACAAGAA [Sekhemkhet] | 36.8 nM
AAAAAGUCAGGAUAUGUCAAAGGUCACGAAAGUGACAAAGGACAGAAGGGACAUGAGGAUCACCCAUGUGGAAA [Fiskers Exclusion 4D1 65% - Late G segment 1] | 115 nM
AAGAAACAUGAGGAUCACCCAUGUAAGGAUAUGAAAAAGAAAAGAAAAGAAAGAAGAAUCAGAAGGUACAAAGG [Nakhtnebtepnefer Intef III] | 26.1 nM
AAAAGACAUGAGGAUCACCCAUGUUAGGAUAUGGAAAAACAAAAAAAAAAAAAAAAAACCAGAAGGAGCGAGGG [another 1 four] | 132 nM
AAAAAACAUGAGGAUCACCCAUGUAAGGAUAUGCUAAAAAACACGGAAAAACGUGAUAGCAGAAGGUACAAAAA [66%, Wbt, 31] | 33.4 nM
AAGACUACAGGAUAUACAUGAGGAUCACCCAUGUAACUGACAAGUAGAGUACGGAGAAGUAGAAGGGUAGUCAA [Ruby 34] | 17.6 nM
AACGAGUCAGGAUAUACAAAAAGUAAAUAAGUAAAACCAAAGUAGAAGGGACAUGAGGAUCACCCAUGUAAAUA [JR_Exc004_Sub019] | 24.4 nM
AGUUGGCGAGGAUAUACAUGAGGAUCACCCAUGUGAGAGAAAAAAAGAAGAAAAAAAAGUAGAAGGCGCUGACA [Mat - Exclusion 3 - Lego mod - D43] | 103 nM
AAAUGCUGAGGAUAUACAUGAGGAUCACCCAUGUAAAAUAAAUAAUAGGUGUAAACGUGUAGAAGGCAGCAUAA [Exclusion 3.14a (FMN+ favored )] | 27.5 nM
AAGAAGAUAGGAUAUACAAAAUAAAAGAAAAGAAAGAAAGAACAUGAGGAUCACCCAUGUAGAAGGGUCAAGAA [Kheperkare Senusret I] | 56.5 nM
AAGAAGCUAGGAUAUACAUGAGGAUCACCCAUGUAAAAGAAAGAAGGGAAAGAGAAAAGUAGAAGGAGCAAGAA [Tefnakht] | 34.4 nM
AACAGUACAGGAUAUACAUGAGGAUCACCCAUGUGAAAAUUAAGUGGCGAACCACAAAGUAGAAGGGUACUGAA [Mat - Exclusion 3 - Eli mod - D56] | 79.3 nM
AACAUGUUAGGAUAUUGAAGAAAAGAAAAGAAAGAAAAGAACAAGAAGGAACAUGAGGAUCACCCAUGUAAGAA [EteRNA is fun!] | 17.2 nM
AAGAAGGCAGGAUAUACAUGAGGAUCACCCAUGUAAAAGAAAGAAAAGGGAAAGAAAAGUAGAAGGGCCAAGAA [Kamose] | 72.1 nM
GAUGAGUGAGGAUAUGUAAAAAAAAGAGAAGAGAAGAGAGAACAGAAGGCACAUGAGGAUCACCCAUGUAGGGA [Default title] | 322 nM
AACAUGUUAGGAUAUCUAAGAAAAGAAAAGAAAGAAAAGAAAGAGAAGGAACAUGAGGAUCACCCAUGUAAGAA [EteRNA is fun!] | 22.1 nM
AUAAACUGAGGAUAUACAUGAGGAUCACCCAUGUAAAAAAAGAAAUGAUCCUCAGGAAGUAGAAGGCAGAAUAA [JR_Exc003_Sub017] | 28.3 nM

Sequence | apparent KD of MS2 coat protein
CAGGUACGAGGAUAUACAUAGAUACAGACACAUGUUCAAGUACAUGAGGAUCACCCAUGUAGAAGGCGUAUAUG [Mat - Same state - Mayanna Mod - D108] | 88.5 nM
GGUUGUCGAGGAUAUACAUGAGGAUCACCCAUGUGAGAGAAAAAAGUGAGAAAGAAAAGUAGAAGGCGAUGACG [salish99-ex3-58] | 180 nM
GUGUACAGAGGAUAUACUAAAGCUAGGAAACUAGCAAGAUCACAUGAGGAUCACCCAUGUAGAAGGCUGUACAC [Ex2: 740] | 500 nM
AAAAAACAUGAGGAUCACCCAUGUCAGGAUAUCCGGUUAAAAAAAAAAAAAAGGCGUUGGAGAAGGGACAUUCC [Chica Displaced 9 - Jieux - Exclusion 1] | 33.4 nM
AAAUAGCAAGGAUAUACAUGAGGAUCACCCAUGUGAAAAUGAUACGUAAUAGAAUAGAGUAGAAGGUGCAAAUA [Ex 3 Tesla 7] | 28.7 nM
GAAAAACAUGAGGAUCACCCAUGUAAGGAUAUGCUAAAAAACACGGAAAAACGUGAUAGCAGAAGGUACAAAAG [Mat - Exclusion 1 - Eli mod - D88] | 44 nM
AGCUAGUCAGGAUAUACGAACAUGACAAAAGACGUGAAGGGACAUGAGGAUCACCCAUGUAGAAGGGACUAGCA [74%, Web mod - With 1 less U's] | 89.7 nM
AAAAAGUUAGGAUAUACAUGAGGAUCACCCAUGUACAUAUAUGGAGAAUAUAGUAGUAGUAGAAGGGACAAAAA [EX2 Malc#14] | 26.9 nM
AAAAAGUCAGGAUAUAGCAAAGGUCACGAAAGUGACAAAGGCUAGAAGGGACAUGAGGAUCACCCAUGUAAAAA [Fiskers Exclusion 4 D2] | 38.8 nM
AAAAACGGAGGAUAUGCAAAAAAAAAAAAAAAAAAAAAAAAACAUGAGGAUCACCCAUGUAGAAGGCCGAAAAA [Diamond] | 36.9 nM
AGAAUUGUAGGAUAUACAUGAGGAUCACCCAUGUGGGAGGUGGAGCAAACAAGACGAGGUAGAAGGACAACGAC [JR_Exc003-Sub904] | 125 nM
AAAAAGUAAGGAUAUGCGAAUAAAUAAGAAGAAGAAAGAAAGCAGAAGGUACAUGAGGAUCACCCAUGUAAAAA [Ex 4 Tesla 1] | 22.5 nM
CAGUACUGAGGAUAUACAUGAGGAUCACCCAUGUGAUCAAGCUACGAAAGUAGCAAAAGUAGAAGGCAGUACUG [Ex3: 810] | 56.7 nM
ACAUGACAUGAGGAUCACCCAUGUGAGGAUAUGCGAAAAAAAUUUUUAAAAAAAAUUGGCAGAAGGCACAAAAU [George Ritzer.] | 99.1 nM
CCUGAACAUGAGGAUCACCCAUGUGAGGAUAUGAUGCGAAUAAAGAAAGAAGAAAGCAUCAGAAGGCACAUAGG [Mod of Disincluded 3 v.4] | 43.4 nM
AAACGUUGAGGAUAUACAGAAGGGUAUAAAUCAUAAAAAACACAUGAGGAUCACCCAUGUAGAAGGCAACGAAA | 46.8 nM
AAAAUACAUGAGGAUCACCCAUGUGAGGAUAUGCUAUGGAAAAUAAAAAUAAAACAUAGCAGAAGGCACAAAAA [Denovo 13] | 56.7 nM
AAAAAGUCAGGAUAUGCAGAUAAAAAAACGAAAAAAAAUCUGCAGAAGGGACAUGAGGAUCACCCAUGUAAAAA [Ex 4 May 5] | 40.4 nM
AGCAAGUGAGGAUAUGCGAAGUCAGGACACACACUGACGAAGCAGAAGGCACAUGAGGAUCACCCAUGUAAGCA [JR_Exclusion-4 65% 1] | 27.1 nM
AAAAAGGCAGGAUAUGCAUACCCACGAAAAAAAACGCUGGGACAUGAGGAUCACCCAUGUAGAAGGGCCAAAAA [Dora Explored 11 - Jieux - Exclusion 2] | 28.2 nM
GGAAAACAUGAGGAUCACCCAUGUAAGGAUAUGCUAGGGAAGGAAAAAAACCCACCAGGCAGAAGGUACUAAAG [Janelle Amethyst 18 Mod 5 - Jieux - Exclusion 1] | 41.4 nM
CGGGAGUCAGGAUAUACGAACAUGUCGCCAGAUGUCAAGGUACAUGAGGAUCACCCAUGUAGAAGGGAGGAGAG [salish99-Ex2-34] | 65 nM
